# In the RNAGym collection of RNA variant scans (doi:10.1073/pnas.2313332121):
# This sample holds only a part of the variants without activity.
# B1: TPR 5TU (parent)
# chain: GGAUCUUCUCGAUCUAACAAAAAAGACAAAUCUGCCACAAAGCUUGAGAGCAUCUUCGGAUGCAGAGGCGGCAGCCUUCGGUGGCGCGAUAGCGCCAACGUUCUCAACUAUGACACGCAAAACGCGUGCUCCGUUGAAUGGAGUUUAUCAUG
# Variants of: B1
# Assay: polymerase ribozyme fitness, log enrichment relative to wild type (log ratio); higher = more active; in vitro selection for triplet polymerase activity
# Method in brief: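 Streptavidin-bead capture of gel-excised extended constructs, followed by RT-PCR, closed a single triplicate in vitro selection round. That round began by annealing PCR-built, transcribed mutant libraries of each subunit of a heterodimeric triplet polymerase ribozyme with a biotinylated primer, the partner subunit and triplets, then incubating them frozen at −7 °C. After Illumina sequencing of inputs and outputs, genotypes needed ≥10 input reads and ≥1 read per output. Fitness is the base-2 logarithm of genotype enrichment over wild-type enrichment, using inverse-variance-weighted replicate averages.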
row,Variant,polymerase ribozyme fitness (log ratio)
1,G50A G58C C99A,≤ -4.2
2,A49U U56A C99G A147G,≤ -4.2
3,A49G G94A U127C,-3.23
4,A49G G126U,-0.157
5,A49U G83A U145A,-1.1
6,A49G G84U U145G,-3.09
7,A49U G58A U102G A122U,-0.217
8,G50C A142U,-3.9
9,G50U A97U U102A G124A,-2.31
10,G50C G59C G83A,-3.91
11,G50U C96A C116G U144G,-1.25
12,G50C G58U,-1.88
13,G50U C96U C99A C103G G124C C129A U144G,≤ -4.2
14,G50U C99A,-1.59
15,G50A G94U C116G,-1.85
16,G50A C76A G92A U101G G128U U130G,≤ -4.2
17,G50C G59C G62A G68C C95U U148C,≤ -4.2
18,G50A G84U G141U,-3.31
19,G50A A97G A138C,-4.01
20,G50C C93G U104C,≤ -4.2
21,G50A C103U,-1.49
22,G50A A52C G81C,-2.82
23,G50A A64C C95G C114U,≤ -4.2
24,A49U G58C A66G G80U C85A C87A C108G G128U C149U,≤ -4.2

row,Variant,polymerase ribozyme fitness (log ratio)
1,A49U A52C,-0.692
2,A49G G84A G152A,-2.8
3,G50A U53A U56A C75U C116A U134G,≤ -4.2
4,G50C C93U,-4.15
5,G50C C93A,≤ -4.2
6,G50U C87U G152U,-4.17
7,G50C U90C U104G,≤ -4.2
8,A49G U101C C114G U134C,-3.89
9,G50A G84A U101C G117C U146G,-0.884
10,A49U G136A G141A,-0.805
11,G50U C125G,-0.442
12,G50U A73U C87U,-2.26
13,G50A C93G G124A C125U G133A U135G A150G,≤ -4.2
14,G50A U77A A106U A113G A121U C131U,≤ -4.2
15,A49U A107C,≤ -4.2
16,G50C A66C A91U A106C A137C U148A,≤ -4.2
17,G50U A52G C75A C85A G92C G126U G128A A147U,≤ -4.2
18,G50C C63U U82C A115U U146A,-1.83
19,G50A G83A A97G,-0.838
20,G50A A91U,≤ -4.2
21,G50C C85U,-2.99
22,G50C U130C,-1.3
23,G50U C87U A89G,-3.95
24,G50A C95U,-2.44

row,Variant,polymerase ribozyme fitness (log ratio)
1,G50A C95G,-3.01
2,G50C U53A C57G A73G C93A C95A U101G A107G A138C U144C,≤ -4.2
3,G50A C51A C114U U134C G136A U151G,≤ -4.2
4,G50A C57A A66C G81U G86C A97C,≤ -4.2
5,G50C A122C G143A,-4.06
6,G50C U104G,≤ -4.2
7,G50A U90C C96G A115U,≤ -4.2
8,G50A C93U G152A,-3.09
9,G50U C63U C85A A110G,-4.19
10,G50U C57U G84U C103U,-2.21
11,G50A A110G,-3.88
12,G50A C54U A91U C93U A107C C108A C132G A138U U148G,≤ -4.2
13,G50U A66C C76U U82G A89G A138U,≤ -4.2
14,G50C C93U U104G G136U G141A,≤ -4.2
15,G50A G86A C131U,-1.93
16,G50A G84A C95G U146C,-0.861
17,G50C A52C U56C C96U A107U,≤ -4.2
18,G50A A52C A97G G100A C114G G133U,≤ -4.2
19,G50A G71C U82G C85G,≤ -4.2
20,G50A A60U C96U U127A,-3.79
21,A49U G50A G84A C95G U146C,-1.2
22,G50C G59C C95G,-3.67
23,G50A C57A C85A A91C A98C A121U G128U U135G A142U G143A,≤ -4.2
24,G50C C87U C103G A121G C123U C125G,≤ -4.2

row,Variant,polymerase ribozyme fitness (log ratio)
1,G50A A150U,-1.41
2,G50C C95G U101G A115U C118G A122C G126U,≤ -4.2
3,G50A G59U G71U A73C C95A C108G,≤ -4.2
4,G50A U78A G83A G100A A107C,≤ -4.2
5,G50A A52U U78C C116A C149G,≤ -4.2
6,A49U G58C,-0.846
7,G50A C76G C93G U102A U135G A150G,≤ -4.2
8,G50U C69U C99U,-3.41
9,G50C C57A A66C C85G,≤ -4.2
10,G50U A66C C69U A73C,≤ -4.2
11,A49U G59A A115U A119C,-3.36
12,G50A G58C C76U C85G G141U,-4.1
13,G50C C95U U146G,-3.64
14,G50C A119U,-3.92
15,G50C C51U C87U G152U,≤ -4.2
16,G50A G59A U101G,-0.0298
17,G50A G59A G133U,≤ -4.2
18,G50C A52C G58C,≤ -4.2
19,G50A C85U C96U C105U G141A,-1.94
20,G50C U56A A73G C125A,-4.1
21,G50C C87G C114A A115G,≤ -4.2
22,G50A C69U G84U A98U A122G,≤ -4.2
23,A49U,-0.673
24,G50C U101G,-2.64

row,Variant,polymerase ribozyme fitness (log ratio)
1,G50A C54U U55A A73G,≤ -4.2
2,G50C C95U,-3.47
3,G50A U53C U56A A91U G94C A142C,≤ -4.2
4,A49G G133C,-2.21
5,G50U A97U A147U,0.621
6,G50U C63U C79G C131G A137C,≤ -4.2
7,A49U U61A A138C G140C,≤ -4.2
8,G50C G81A G86U C87A G136U,≤ -4.2
9,G50U A52C A64C G92C,≤ -4.2
10,A49U A66G G80C G84U U102G,≤ -4.2
11,G50A C85G,-3.34
12,G50C C69A C79A U82G U90G A107G A120G C129G U139G C149G,≤ -4.2
13,G50U C85A,-1.4
14,G50C A52G C57U C93A,≤ -4.2
15,G50C U55A,-3.29
16,G50C A52C,-2.71
17,G50A C57A C76G C93G,≤ -4.2
18,G50A C95U C125U,-2.44
19,A49U A142C,-1.43
20,G50A C57A C99A,-2.67
21,G50A C76U C93U A98C,-3.32
22,G50A U55A C95A,-1.86
23,G50A C87U A97U,-3.34
24,G50U C96G,-0.544

row,Variant,polymerase ribozyme fitness (log ratio)
1,G50C U77G C93G,≤ -4.2
2,G50A C57U C85U G128A,≤ -4.2
3,G50C A73G C87A,≤ -4.2
4,A49U C85G,-2.96
5,G50A A106G C118U,-1.6
6,A49U A110U G117U,≤ -4.2
7,A49U U56G C85U G86U U102C,≤ -4.2
8,G50U G65C A66C C96G,≤ -4.2
9,G50A G84A,-2.43
10,G50A G84U,-1.58
11,G50C C103A C149U,≤ -4.2
12,A49U C57A G81A A98C U148G,≤ -4.2
13,G50C G68A A142U,≤ -4.2
14,G50A G65A A89U U101A A106C,-4.2
15,G50C A64U G100U U111C G136C,≤ -4.2
16,G50C A52C C54U G88A C96G,≤ -4.2
17,A49U G80A,-3.76
18,G50A G70A,-3.76
19,G50C C76U C85U C116G,-2.09
20,G50U C51U G58U C108G C123G,≤ -4.2
21,G50A C72U A98C C99A,≤ -4.2
22,G50U G80A G92A A115U,≤ -4.2
23,G50A U56G C85U A115C U144G,-2.74
24,G50C A64C G80A A120C G128U,≤ -4.2

row,Variant,polymerase ribozyme fitness (log ratio)
1,A49U C93U,-1.38
2,G50C G81C C93G C95U A110C,≤ -4.2
3,G50A A60C G62A C76U C96U G100U C108G,≤ -4.2
4,G50C C87U,-3.6
5,G50A G141C,-1.77
6,G50C C96A,-3.01
7,G50A U102A,-3.08
8,G50C U56A U78A G83A G94U C95A,≤ -4.2
9,G50U C75G G86U C87A A89U,≤ -4.2
10,G50C C57G C95A A115C,≤ -4.2
11,G50A G58C,-1.06
12,G50A G68A C96G C99U G136A,≤ -4.2
13,A49U A89U C132U,-2.65
14,G50C G94A C116U,-3.3
15,A49U G141A A147G,≤ -4.2
16,G50C G83U,-3.77
17,G50U A64G C103G C125A A142G,≤ -4.2
18,A49U U53A G86A C87A A89G C114U,≤ -4.2
19,G50A U53A U55A U56A G67C G92A G126U,≤ -4.2
20,A49U A91G,≤ -4.2
21,G50A G143C,-3.85
22,A49U U55G C103A U111C A138G G152A,≤ -4.2
23,G50C C93G C99U,≤ -4.2
